Experimental findings from article PMC2673439 are described below.

One may read the Kd as the free concentration of one partner at which half of the binding sites on the other are occupied at equilibrium, for simple one-to-one binding. A high value points to a looser complex.

One data set concerns the target T1, tvMyb1(35-141) (Trichomonas vaginalis, UniProt Q58HP2 35-141).
T1 sequence: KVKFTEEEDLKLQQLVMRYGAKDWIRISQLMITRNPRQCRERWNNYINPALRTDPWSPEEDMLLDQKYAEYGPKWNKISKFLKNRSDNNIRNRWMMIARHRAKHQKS
The data set is described as follows: SPR.

The next data set deals with T2, tvMyb1(35-141) T67A (Trichomonas vaginalis, UniProt Q58HP2 35-141, T67A).
T2 sequence: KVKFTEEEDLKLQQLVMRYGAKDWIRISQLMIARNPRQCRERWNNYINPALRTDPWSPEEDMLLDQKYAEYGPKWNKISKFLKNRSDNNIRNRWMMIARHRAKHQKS
In words: SPR. A general note: In SPR one partner is held on a chip, and binding of the other changes the refractive index at the surface.

B1: MRE-1/MRE-2r 16-bp duplex, 5'-biotin (dsDNA)
DNA 1: AAGATAACGATATTTA
DNA 2: TAAATATCGTTATCTT
In the data set with tvMyb1(35-141), B1 registered a dissociation constant (Kd) of 1.24 nM. The binding result with tvMyb1(35-141) T67A was “binds”.
